# Reference: article doi:10.1101/677500
# What was measured:
# [1] = target: EhPKDL-FITC (Entamoeba histolytica); test: other fluorescence titration
# [2] = target: GST-EhPKDL (Entamoeba histolytica Protein kinase D like kinase, recombinant) (Entamoeba histolytica); test: SEC
stoichiometry N [1] [molar ratio],stoichiometry N [2],Substance
1,,actin-TRITC (natural protein)
,2,"GST-EhPKDL (Entamoeba histolytica Protein kinase D like kinase, recombinant) (enzyme)"
